From PMC11996885, “Identification of potent biparatopic antibodies targeting FGFR2 fusion–driven cholangiocarcinoma” (The Journal of Clinical Investigation, 2025)

B1: anti-FGFR2 parental antibody B (antibody, V domains shown)
VH: QIQLVQSGPELKKPGETVKISCKASGYTFTDFGMNWMKQAPGKGFKWMGWINTSTGESTYADDFKGRFAFSLETSASTAYLQINNLKNEDMATYFCARNSYYGGSYGYWGQGTTLTVSS
VL: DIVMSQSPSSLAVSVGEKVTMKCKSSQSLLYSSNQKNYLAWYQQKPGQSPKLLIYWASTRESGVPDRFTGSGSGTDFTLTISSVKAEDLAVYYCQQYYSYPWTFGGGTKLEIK
notes: heavy chain of antibody B; light chain of antibody B; IgG1; also called Ab-B; copies: 2 + 2
B2: anti-FGFR2 parental antibody D (antibody, V domains shown)
VH: EVQLVESGGGLVQPGGSLRLSCAASGFPFTSTGISWVRQAPGKGLEWVGRTHLGDGSTNYADSVKGRFTISADTSKNTAYLQMNSLRAEDTAVYYCARTYGIYDTYDMYTEYVMDYWGQGTLVTVSS
VL: DIQMTQSPSSLSASVGDRVTITCRASQDVDTSLAWYKQKPGKAPKLLIYSASFLYSGVPSRFSGSGSGTDFTLTISSLQPEDFATYYCQQSTGHPQTFGQGTKVEIK
notes: heavy chain of antibody D; light chain of antibody D; IgG1; also called Ab-D; copies: 2 + 2
B3: anti-FGFR2 parental antibody C (antibody, V domains shown)
VH: QVQLVESGGGLVKPGGSLRLSCAASGFTFSSYALSWVRQAPGKGLEWVGRIRSKIDGGTTDYAAPVKGRFTISRDDSKNTLYLQMNSLKTEDTAVYYCARDRSPSDSSAFAIWGQGTLVTVSS
VL: DIELTQPPSVSVSPGQTASITCSGDNLGSQYVDWYQQKPGQAPVLVIYDDNDRPSGIPERFSGSNSGNTATLTISGTQAEDEADYYCQSWDSLSVVFGGGTKLTVL
notes: heavy chain of antibody C; light chain of antibody C; IgG1; also called Ab-C; copies: 2 + 2
B4: Anti-FGFR2 parental antibody B (antibody, V domains shown)
VH: B1 VH
VL: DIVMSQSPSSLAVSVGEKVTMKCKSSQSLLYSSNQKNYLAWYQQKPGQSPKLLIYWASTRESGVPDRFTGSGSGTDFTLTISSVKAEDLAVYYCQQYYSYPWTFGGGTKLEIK
notes: VH of antibody B; VL of antibody B; Full human IgG1; also produced with F405L or K409R in the Fc for Fab-arm exchange; The label 'Gal' in some supplementary panels probably means B; also called Ab-B; copies: 2 + 2
B5: Anti-FGFR2 parental antibody D (antibody, V domains shown)
VH: B2 VH
VL: B2 VL
notes: VH of antibody D; VL of antibody D; Full human IgG1; also produced with F405L or K409R in the Fc for Fab-arm exchange; The label 'GE' in some supplementary panels probably means D; also called Ab-D; copies: 2 + 2
B6: Anti-FGFR2 parental antibody C (antibody, V domains shown)
VH: B3 VH
VL: B3 VL
notes: VH of antibody C; VL of antibody C; Full human IgG1; The label 'N10' in some supplementary panels probably means C; also called Ab-C; copies: 2 + 2
B7: FGFR2 parental antibody F (antibody, V domains shown)
VH: QVQLVQSGAEVKKPGESLKISCKGSGYSFTNYYIHWVRQMPGKGLEWMGAIYPDNSDTTYSPSFQGQVTISADKSISTAYLQWSSLKASDTAMYYCARGADIWGQGTLVTVSS
VL: DIQMTQSPSSLSASVGDRVTITCRASQDIDPYLSNWYQQKPGKAPKLLIYDASNLQSGVPSRFSGSGSGTDFTLTISSLQPEDFATYYCQQTTSHPYTFGQGTKVEIK
notes: heavy chain of antibody F, IgG1; light chain of antibody F; IgG1; One of the six parental antibodies is the parental antibody of bemarituzumab; also called Ab-F; copies: 2 + 2
B8: FGFR2 parental antibody E (antibody, V domains shown)
VH: QVQLVQSGAEVKKPGSSVKVSCKASGYIFTTYNVHWVRQAPGQGLEWIGSIYPDNGDTSYNQNFKGRATITADKSTSTAYMELSSLRSEDTAVYYCARGDFAYWGQGTLVTVSS
VL: DIQMTQSPSSLSASVGDRVTITCKASQGVSNDYAWYQQKPGKAPKLLIYSASYRYTGVPSRFSGSGSGTDFTFTISSLQPEDIATYYCQQHSTTPYTFGQGTKLEIK
notes: heavy chain of antibody E, IgG1; light chain of antibody E; IgG1; One of the six parental antibodies is the parental antibody of bemarituzumab; Also used as the FGFR2 immunoblot reagent (Genscript); also called Ab-E; copies: 2 + 2
B9: FGFR2 parental antibody A (antibody, V domains shown)
VH: EVQLLESGGGLVQPGGSLRLSCAASGFTFSSYAMSWVRQAPGKGLEWVSAISGSGTSTYYADSVKGRFTISRDNSKNTLYLQMNSLRAEDTAVYYCARVRYNWNHGDWFDPWGQGTLVTVSS
VL: QSVLTQPPSASGTPGQRVTISCSGSSSNIGNNYVSWYQQLPGTAPKLLIYENYNRPAGVPDRFSGSKSGTSASLAISGLRSEDEADYYCSSWDDSLNYWVFGGGTKLTVL
notes: heavy chain of antibody A, IgG1; light chain of antibody A; IgG1; One of the six parental antibodies is the parental antibody of bemarituzumab; also called Ab-A; copies: 2 + 2
B10: FGFR2 parental antibody B (antibody, V domains shown)
VH: B1 VH
VL: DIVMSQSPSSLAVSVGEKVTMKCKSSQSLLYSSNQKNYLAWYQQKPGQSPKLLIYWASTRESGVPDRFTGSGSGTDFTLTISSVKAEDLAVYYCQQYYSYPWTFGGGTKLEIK
notes: heavy chain of antibody B, IgG1; light chain of antibody B; IgG1; One of the six parental antibodies is the parental antibody of bemarituzumab; also called Ab-B; copies: 2 + 2
B11: FGFR2 parental antibody D (antibody, V domains shown)
VH: B2 VH
VL: B2 VL
notes: heavy chain of antibody D, IgG1; light chain of antibody D; IgG1; One of the six parental antibodies is the parental antibody of bemarituzumab; also called Ab-D; copies: 2 + 2
B12: FGFR2 parental antibody C (antibody, V domains shown)
VH: B3 VH
VL: B3 VL
notes: heavy chain of antibody C, IgG1; light chain of antibody C; IgG1; One of the six parental antibodies is the parental antibody of bemarituzumab; also called Ab-C; copies: 2 + 2

Molecular target: T1, hFGFR2 ECD 22-378 His-tag (Homo sapiens, UniProt P21802-3)
T1 construct: FGFR2, human, extracellular domain residues 22-378 (SinoBiological 16485-H08H); Analyte of the BLI kinetics; also called hFGFR2 ECD AA22-AA378 His-tag; source: bought: SinoBiological
Test: BLI; Octet RED96e, 25 C, 1,000 rpm, 1x kinetic buffer; antibody captured on anti-human Fc (AHC) biosensor at 0.5 ug/mL; hFGFR2 ECD 22-378 His-tag as analyte, 7 two-fold dilutions from 100 nM; 1:1 model, global fit; apparent
Details: both partners purified

Kd | Binder
5.5 nM | B1
2.79 nM | B2
7.05 nM | B3

Molecular target: T2, hFGFR2 ECD 22-378 His-tag (human, UniProt P21802-3, biotin (Abcam Biotinylation Kit) in the epitope binning only)
T2 construct: human FGFR2 extracellular domain, residues 22-378, SinoBiological 16485-H08H; also called hFGFR2 ECD AA22-AA378 His-tag; source: bought: SinoBiological
Test: BLI; Octet RED96e, 25°C, 1,000 rpm, 1x kinetic buffer; antibodies captured on anti-human Fc (AHC) biosensors at 0.5 ug/mL; hFGFR2 ECD 22-378 His-tag as analyte, 7 2-fold dilutions from 100 nM; association 300 s, dissociation 600 s; 1:1 model, global fit; apparent Kd for the biparatopic antibodies
Details: both partners purified

T2 sequence (P21802 other isoform, or with tags, fused parts or gaps): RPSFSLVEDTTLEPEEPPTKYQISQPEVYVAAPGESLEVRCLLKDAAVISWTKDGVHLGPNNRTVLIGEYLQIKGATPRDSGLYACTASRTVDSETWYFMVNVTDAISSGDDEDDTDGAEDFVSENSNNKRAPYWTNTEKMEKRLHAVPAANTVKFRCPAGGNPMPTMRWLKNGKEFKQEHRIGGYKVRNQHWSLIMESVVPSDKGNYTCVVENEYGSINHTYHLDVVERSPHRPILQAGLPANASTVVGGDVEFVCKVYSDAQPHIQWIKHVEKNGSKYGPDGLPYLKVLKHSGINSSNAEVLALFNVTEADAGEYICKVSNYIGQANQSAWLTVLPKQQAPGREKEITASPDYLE

Kd | koff | kon | Binder
5.5 nM | 0.000316 s⁻¹ | 53100 M⁻¹ s⁻¹ | B4
2.79 nM | 0.000741 s⁻¹ | 282000 M⁻¹ s⁻¹ | B5
7.05 nM | 0.00292 s⁻¹ | 417000 M⁻¹ s⁻¹ | B6

Molecular target: T3, hFGFR2 ECD 22-378 His-tag (Homo sapiens, UniProt P21802-3, biotin in the epitope binning only (Abcam Biotinylation Kit))
T3 construct: human FGFR2 extracellular domain, residues 22-378; The antigen of the MSD-SET assay and the FGFR2 ECD of the SEC-MALS experiment are not described; also called hFGFR2 ECD AA22-AA378 His-tag; antigen; source: bought: SinoBiological
Test: BLI; Octet RED96e, 25°C, 1x kinetic buffer; antibodies captured on Anti-Human Fc capture biosensor at 0.5 μg/mL; hFGFR2 ECD 22-378 His-tag as analyte, 2-fold dilutions from 100 nM; 1:1 binding model; apparent affinity
Details: both partners purified

T3 sequence (P21802 other isoform, or with tags, fused parts or gaps): as above

binding result | Binder
binds | B7
binds | B8
binds | B9

Molecular target: T4, FGFR2 on SNU16 cells (FGFR2 amplification) (Homo sapiens (SNU-16, endogenous), UniProt P21802-3)
T4 construct: FGFR2 endogenous on SNU16 cells; source: endogenous, SNU16 cells
Test: flow cytometry on cells; SNU-16 cells incubated with serial dilutions of parental antibody A-F in 1x PBS (Mg2+ free), 1.5 hours at room temperature; anti-human IgG secondary antibody; fit with a ligand-binding quadratic equation; apparent Kd
Details: one partner purified

T4 sequence (P21802 22-821): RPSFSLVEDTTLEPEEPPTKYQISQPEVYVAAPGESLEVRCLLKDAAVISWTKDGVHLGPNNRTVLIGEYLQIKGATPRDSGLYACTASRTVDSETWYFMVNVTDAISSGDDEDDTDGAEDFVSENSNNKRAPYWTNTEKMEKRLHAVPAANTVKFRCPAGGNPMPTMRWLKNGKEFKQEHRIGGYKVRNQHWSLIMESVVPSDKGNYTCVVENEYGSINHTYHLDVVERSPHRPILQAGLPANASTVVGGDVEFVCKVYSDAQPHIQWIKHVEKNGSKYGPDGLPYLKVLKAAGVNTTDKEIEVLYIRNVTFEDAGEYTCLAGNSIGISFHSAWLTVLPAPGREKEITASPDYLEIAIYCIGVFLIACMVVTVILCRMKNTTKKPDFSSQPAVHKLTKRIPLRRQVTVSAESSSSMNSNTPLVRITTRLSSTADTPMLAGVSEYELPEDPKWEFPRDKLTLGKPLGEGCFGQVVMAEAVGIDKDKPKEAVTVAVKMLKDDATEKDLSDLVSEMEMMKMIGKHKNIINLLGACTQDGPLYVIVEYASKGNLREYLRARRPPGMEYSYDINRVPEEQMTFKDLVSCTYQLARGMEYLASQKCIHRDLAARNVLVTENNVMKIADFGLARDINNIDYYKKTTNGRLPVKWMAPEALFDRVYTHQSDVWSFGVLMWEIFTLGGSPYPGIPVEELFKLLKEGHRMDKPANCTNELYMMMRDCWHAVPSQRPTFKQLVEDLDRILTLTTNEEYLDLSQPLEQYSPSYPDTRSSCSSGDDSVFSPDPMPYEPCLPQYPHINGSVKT

binding result | Binder
binds | B7
binds | B8
binds | B9

Molecular target: T5, full-length FGFR2-BICC1 on NIH3T3 cells (Homo sapiens, UniProt P21802-3, chimera)
T5 construct: FGFR2 part of the fusion, from its N-terminus with the extracellular domain to the breakpoint; the printed Gln361 fits the IIIb isoform (FGFR2b); BICC1 part of the fusion; also called FL; source: NIH3T3, transfected, on cells
Test: flow cytometry on cells; NIH3T3 cells expressing full-length FGFR2-BICC1 or its D1, D2, D3 or D2+D3 deletion variants, parental antibody A-F at 10 μg/mL in 1x PBS (Mg2+ free), 1.5 hours at room temperature; anti-human IgG secondary antibody
Details: one partner purified

T5 sequence (P21802 whole entry, looked up, change not shown, the tested form may be a part, canonical isoform): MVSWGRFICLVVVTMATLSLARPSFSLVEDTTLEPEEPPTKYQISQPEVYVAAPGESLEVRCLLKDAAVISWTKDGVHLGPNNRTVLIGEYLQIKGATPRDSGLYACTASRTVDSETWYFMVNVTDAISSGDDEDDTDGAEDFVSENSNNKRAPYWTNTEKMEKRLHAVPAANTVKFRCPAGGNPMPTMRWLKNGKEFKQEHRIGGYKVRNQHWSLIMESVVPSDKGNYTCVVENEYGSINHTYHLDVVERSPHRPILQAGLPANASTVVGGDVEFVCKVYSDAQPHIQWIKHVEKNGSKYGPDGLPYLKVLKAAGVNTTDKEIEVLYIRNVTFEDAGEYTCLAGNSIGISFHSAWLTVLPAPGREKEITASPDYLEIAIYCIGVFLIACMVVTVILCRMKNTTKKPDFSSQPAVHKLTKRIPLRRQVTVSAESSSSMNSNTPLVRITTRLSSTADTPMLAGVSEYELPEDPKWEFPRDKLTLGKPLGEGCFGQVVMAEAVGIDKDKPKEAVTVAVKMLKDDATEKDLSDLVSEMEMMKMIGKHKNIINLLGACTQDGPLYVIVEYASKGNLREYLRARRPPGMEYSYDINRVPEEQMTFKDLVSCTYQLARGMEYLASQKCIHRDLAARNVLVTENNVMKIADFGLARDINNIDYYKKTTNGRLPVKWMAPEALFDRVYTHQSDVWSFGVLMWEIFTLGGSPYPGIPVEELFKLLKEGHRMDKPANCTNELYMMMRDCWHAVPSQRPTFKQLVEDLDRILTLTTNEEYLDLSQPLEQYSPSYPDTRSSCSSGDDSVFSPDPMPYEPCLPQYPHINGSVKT

binding result | Binder
binds | B10
binds | B7
binds | B11
binds | B8
binds | B12
binds | B9
